Test results as given in patent US20260117202A1.

What was measured:
Assay in all cases: sandwich ELISA, AM14 coated, supernatant 1:10
[1] = target: FHS-85 (RSV strain A2) (UniProt P03420)
[2] = target: FHS-6 (RSV strain A2) (UniProt P03420)
[3] = target: FHS-1 (RSV strain A2) (UniProt P03420)
[4] = target: FHS-46 (RSV strain A2) (UniProt P03420)
[5] = target: FHM-3 (RSV strain A2) (UniProt P03420)
[6] = target: FHS-76 (RSV strain A2) (UniProt P03420)
[7] = target: FHS-36 (RSV strain A2) (UniProt P03420)
[8] = target: FHS-71 (RSV strain A2) (UniProt P03420)
[9] = target: FHS-91 (RSV strain A2) (UniProt P03420)
[10] = target: FHS-3 (RSV strain A2) (UniProt P03420)
[11] = target: FHM-12 (RSV strain A2) (UniProt P03420)
[12] = target: FHS-84 (RSV strain A2) (UniProt P03420)
[13] = target: FHS-44 (RSV strain A2) (UniProt P03420)
[14] = target: FHS-55 (RSV strain A2) (UniProt P03420)
[15] = target: FHS-10 (RSV strain A2) (UniProt P03420)
[16] = target: FHM-17 (RSV strain A2) (UniProt P03420)
[17] = target: FHS-33 (RSV strain A2) (UniProt P03420)
[18] = target: FHS-63 (RSV strain A2) (UniProt P03420)
[19] = target: FHS-77 (RSV strain A2) (UniProt P03420)
[20] = target: FHS-60 (RSV strain A2) (UniProt P03420)
[21] = target: FHS-87 (RSV strain A2) (UniProt P03420)
[22] = target: FHS-25 (RSV strain A2) (UniProt P03420)
[23] = target: FHS-82 (RSV strain A2) (UniProt P03420)
[24] = target: FHS-94 (RSV strain A2) (UniProt P03420)
[25] = target: FHS-40 (RSV strain A2) (UniProt P03420)
[26] = target: FHS-5 (RSV strain A2) (UniProt P03420)
[27] = target: FHM-10 (RSV strain A2) (UniProt P03420)
[28] = target: FHS-68 (RSV strain A2) (UniProt P03420)
[29] = target: FHS-96 (RSV strain A2) (UniProt P03420)
[30] = target: FHS-45 (RSV strain A2) (UniProt P03420)
[31] = target: FHM-5 (RSV strain A2) (UniProt P03420)
[32] = target: FHS-13 (RSV strain A2) (UniProt P03420)
[33] = target: FHS-49 (RSV strain A2) (UniProt P03420)
[34] = target: FHS-74 (RSV strain A2) (UniProt P03420)
[35] = target: FHS-39 (RSV strain A2) (UniProt P03420)
[36] = target: FHS-78 (RSV strain A2) (UniProt P03420)
[37] = target: FHM-22 (RSV strain A2) (UniProt P03420)
[38] = target: FHS-65 (RSV strain A2) (UniProt P03420)
[39] = target: FHS-61 (RSV strain A2) (UniProt P03420)
[40] = target: FHS-43 (RSV strain A2) (UniProt P03420)
[41] = target: FHS-58 (RSV strain A2) (UniProt P03420)

AM14 monoclonal antibody
OD value [1]: 0.008 OD | OD value [2]: 2.65 OD | OD value [3]: 2.03 OD | OD value [4]: 2.41 OD | OD value [5]: 0.07 OD | OD value [6]: 0.821 OD | OD value [7]: 0.009 OD | OD value [8]: 0.012 OD | OD value [9]: 0.008 OD | OD value [10]: 0.076 OD | OD value [11]: 2.13 OD | OD value [12]: 1.01 OD | OD value [13]: 0.039 OD | OD value [14]: 0.009 OD | OD value [15]: 0.069 OD | OD value [16]: 0.006 OD | OD value [17]: 0.005 OD | OD value [18]: 0.006 OD | OD value [19]: 0.06 OD | OD value [20]: 0.007 OD | OD value [21]: 0.239 OD | OD value [22]: 0.007 OD | OD value [23]: 0.063 OD | OD value [24]: 0.009 OD | OD value [25]: 0.009 OD | OD value [26]: 2.24 OD | OD value [27]: 0.01 OD | OD value [28]: 1.99 OD | OD value [29]: 0.011 OD | OD value [30]: 0.12 OD | OD value [31]: 1.96 OD | OD value [32]: 0.013 OD | OD value [33]: 1.96 OD | OD value [34]: 0.023 OD | OD value [35]: 0.007 OD | OD value [36]: 1.24 OD | OD value [37]: 1.98 OD | OD value [38]: 1.73 OD | OD value [39]: 0.008 OD | OD value [40]: 0.006 OD | OD value [41]: 0.011 OD
